B1: TPR t1 (parent)
chain: GACCAAUCUGCCCUCAGAGCUCGAGAACAUCUUCGGAUGCAGAGGAGGCAGGCUUCGGUGGCGCGAUAGCGCCAACGUCCUCAACCUCCAAUGCAUCCCACCACAUGAUGAUGCCUGAAGAGCCUUGGUUUUUUG

Variants of: B1
Assay: polymerase ribozyme fitness, log enrichment relative to wild type (log ratio); higher = more active; in vitro selection for triplet polymerase activity
Summary of the method: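 A single round of triplicate in vitro selection, including frozen incubation at −7 °C, was applied to PCR-built, transcribed mutant libraries of each subunit of a heterodimeric triplet polymerase ribozyme. Illumina sequencing of input and output libraries retained genotypes with ≥10 input reads and ≥1 read per output. Fitness is the base-2 logarithm of genotype enrichment divided by wild-type enrichment, from inverse-variance-weighted replicate averages.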

Variant | polymerase ribozyme fitness (log ratio)
U7G A84U G127A | -0.135
U7C G45U G60A C82G C85G G117A | -3.81
C8A C56G A91C C123A | 0.619
U7G C28G U106A | -1.02
C8G C40A C70G C114A | -5.85
U7C G44A | -0.534
C8A A83C A100C | -0.702
C8G C15A G51U C76U C98U | -4.46
C8G A27U A46C G69U U78A C114U | -4.5
C8G G61C C72A C97U U130A | 0.551
C8G C11U C40U A90G C97U U129G | -1.14
U7G C98U | -0.713
C8A C72G C85A A111G U126C | -1.51
C8G G45A G52U C53A C98U G110A G120C U129A | -6.11
C8G C89A G117A U129A | -2.73
U7G C12U C15A C22G C104U | -3.41
U7G G51C U55C C73A | -3.19
C8A G52A | -0.0157
U7G C13A C49G U96C | -0.772
C8A G45C G58A C97G U106A | -3.12
C8G C11G C56A C104A | -1.39
C8A G10C A50U C72U | -1.02
C8G C40G U81G C82U | -0.759
C8A C28A C72U C123U | -2.54

Variant | polymerase ribozyme fitness (log ratio)
C8G C22G G36A C85U U112A | -2.18
C8G C73G G128A | -1.19
C8G A18C G36U C72A U78G C82A C85G | -5.25
U7G C56A G57A G93U | -1.03
C8G C85A A121U | 1.35
U7G C56A | 0.0403
C8G C72G C82A C102U | -1.73
C8G C40G U54C C99U C104U | -2.91
U7G A91U | -1.77
C8A G44U G51U U59C G77U U112C U130A | -4.84
C8A U133G | 0.0303
C8G G117C C124A | -0.905
C8G G57A C73U U78A A91U | -1.7
C8G C123A | 0.956
C8A C53A U78C C80U | -0.244
C8G C20U G42U A83U U116C C123A | -3.74
U7G C79U U81C C86U C88A U125A | -4.3
U7G U55A G58A G63U C98A A105U G120A | -5.94
C8A U59A | -0.964
C8A G44U G52A | -0.478
C8G C28A C72G | -3.76
C8A C49U C73U U130A | -0.88
U7G G63C | -0.0723
C8A C115A | 0.286

Variant | polymerase ribozyme fitness (log ratio)
C8G C12G U30C C53G C114U | -4.29
C8A C72U U87A C99U | -2.56
C8G G36A A121C U131G | 1.28
C8A C70A | -0.98
U7C G47A G69U C72A C102G | -4.77
C8G C15U G48C C124G | 0.169
C8G A50C C72A G93A | -0.538
U7C G17C C115A | 0.0409
U7G A27G G48C C86G | -0.81
C8A U112C | 1.3
C8A C15U G47C G63A C98A C114U G117A U129G | -7.35
C8G C56G C89A A90C G107C G117C | -5.56
C8G G47U G57A C73A C85G U106A U133A | -4.51
C8G C11U | 1.67
C8G C13G A37C G52C C86U | -2.49
C8G C79G C80A | -5.06
C8A C85U | -0.102
C8A G39A | -0.0887
C8G U9G C22G | -3.24
C8G C40A C53G G63U U109G | -7.06
C8G G39A | -0.708
C8G C11U C70A C94U | -1.28
U7G C104A C123G G128C | -3.67
C8G G45C G48A U54G | 0.0312

Variant | polymerase ribozyme fitness (log ratio)
C8A U14A G110A | -1.09
C8A C11G C13U C20A C49G | -3.3
U7G A16C G42A | -4.17
C8G G58C A75C A108U U132A | -5.79
C8G C28A U130A | -5.09
C8G C79U G110C | -4.01
C8G C22G | -3.9
U7G C12U G36A C40A G45A G71U | -3.31
C8A A43C C70G | -6.43
U7G C8U A90U A121C | 1.04
C8A U9G | -0.0103
C8G G44A C101U | -0.462
C8A U30G C115U U130G | -5.92
C8A C13G C80U | -0.499
C8A G60U | -0.464
C8G G10U G36U | -0.687
C8A C72A G93C | 0.271
C8A G45C | 0.366
C8A A91C G117C | -2.17
U7G C20U | -1.37
C8G C73A G120C | 2.29
C8G G47U | 0.0211
C8G U14G G61C A66C | -2.35
C8G C40G G71U U81G C82U | -0.811

Variant | polymerase ribozyme fitness (log ratio)
U7G U32A G39U G127C U130C | -5.02
C8G A43U A95U U109A C123G | -5.23
C8A G42U U96A A100U | -2.37
C8G C98G | -5.23
U7G C72U G93C C115U | 0.15
C8G C20U A46U G52C | -3.42
U7G A46U | -1.38
C8G C34G G39C G120U | -4.99
C8G C12A C28G A29G G48U A68U C114A U125G | -6.52
C8A G63C C86A G93C | -3.35
C8A C79G C85G | -2.78
C8G C53G C56U G93C | 0.798
C8G C34U G39U G58A A84U | -5.29
U7G G71C | -0.641
U7G G77U | 0.185
C8A C62U A118C | -2.69
C8G C62A C94A G120U | 0.318
C8A C56A C70A C98U C123G | -1.64
U7G C73A U92A | -2.35
C8G G45C G51U G65A G113U C123U | -7.22
U7G G48U C70A C86G | -1.54
C8G C13A A16U | 0.292
C8A U9G C62A | -0.773
C8G A18U U21A C79A C123G | -3.84

Variant | polymerase ribozyme fitness (log ratio)
C8G A50U C56A C79G A100G A111U | -5.8
C8A G51U C53G U81G C114A | -5.79
C8G G117A | 0.795
C8G A46U G117C | -1.21
C8G G63A G127C | -1.12
U7G A111U | -1.87
C8G C62U A118U U131C | 1.45
C8A C20U G113U A118U | -0.316
C8A A41U G61A C86A | -1.24
C8G C11A U96G C97G U131G | -5.45
C8G C20U G61A C101U | -0.517
C8A C56U | 0.138
C8G C56A G77A | -0.27
U7C G113A | 0.595
C8A A18C U21G A68G | -6.09
C8G C12A G39A G61U A111U U130A | -2.24
C8G C40A | -1.11
C8A G69A G120C | -1.1
C8G C76A C82A C114G | -4.44
C8A C12U A46C G93A C115A | 0.651
U7G G69U | 0.479
C8A C124A | 2.16
C8A C49A C64U C86U G93U C94U C123A | -0.145
C8G U9C A41C A43U G52A U112A | -0.712

Variant | polymerase ribozyme fitness (log ratio)
C8G C53U C89A | -1.28
C8G C13U G47C | -0.248
C8G C15U G69C A90U | -3.02
C8A U21G A50G C88A C124A | -0.0763
C8G G120A | 1.78
C8G G120C | 2.34
C8G G45A G117A C123A U130G | 0.313
C8A G36U C76A U131C | -1.09
U7G C13G G57A | -0.156
C8A C79U C98G C114U | -6.7
C8G U14A G58C | -0.0186
C8G A41C G63U G113A A118G | -3.33
U7C G17A G63U A121C | -1.33
C8A A18C U38G G61C C94U G110U C123U | -7.38
C8G C11U C85U U130C | -0.895
U7G G51C | -2.99
C8A G117U A119U C123U | -0.478
C8G A27U C53U A111C C114G | -6.88
U7G C8A G44A C123A | 1.17
C8A C64U A95G A111G G122U G135A | -0.12
C8A G120U | 0.91
C8G G44C A84C C115U | -1.3
U7G A84C U112C A119U | 1.28

— the RNAGym collection of RNA variant scans (doi:10.1073/pnas.2313332121)
